This note sets out measurements from PMC6073801.

Experiment [1] has as its target ECD_FGFR1-Fc receptor (extracellular region of fibroblast growth factor receptor 1) (UniProt P11362).
Experiment [2] shares this target. The source holds these as a separate data set.

Chain of UniProt P11362 (P11362 22-376): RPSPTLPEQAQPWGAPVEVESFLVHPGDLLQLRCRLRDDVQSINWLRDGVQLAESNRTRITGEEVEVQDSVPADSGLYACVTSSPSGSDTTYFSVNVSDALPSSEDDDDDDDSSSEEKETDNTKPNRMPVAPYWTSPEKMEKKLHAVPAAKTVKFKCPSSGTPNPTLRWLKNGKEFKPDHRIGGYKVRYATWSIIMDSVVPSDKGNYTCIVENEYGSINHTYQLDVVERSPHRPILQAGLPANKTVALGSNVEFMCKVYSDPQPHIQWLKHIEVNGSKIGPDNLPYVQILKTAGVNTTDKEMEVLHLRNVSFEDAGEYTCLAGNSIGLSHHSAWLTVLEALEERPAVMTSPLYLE

Turning to “FGF2 Cys78-α-amanitin/PrK96-MMAE conjugate (from UniProt P09038-2 23-155) (ligand)”, in experiment [1], the internalization of the DyLight550-labelled conjugate, intracellular fluorescence, NCI-H520 (FGFR1 positive) against HCC-15 (FGFR1 negative) cells came to 2 times and the internalization of the DyLight550-labelled conjugate, intracellular fluorescence, U2OS-FGFR1 against control U2OS cells is 5 fold. In addition, the cytotoxicity (AlamarBlue viability), FGFR1-positive NCI-H446 cells, reduction of viability at the highest tested concentration; no toxicity for FGFR1-negative HCC-15 in experiment [2] worked out at 95%.
